The text below walks through data of the supplement of paper PMC12338614.

± gives the uncertainty stated by the source.

Sequences and labels used below:
B1: library; numbered along this chain (parent)
chain: MEVVDPQQLGMFTEGELMSVGMDTFIHRIDSTEVIYQPRRKRAKLIGKYLMGDLLGEGSYGKVKEVLDSETLCRRAVKILKKKKLRRIPNGEANVKKEIQLLRRLRHKNVIQLVDVLYNEEKQKMYMVMEYCVCGMQEMLDSVPEKRFPVCQAHGYFCQLIDGLEYLHSQGIVHKDIKPGNLLLTTGGTLKISDLGVAEALHPFAADDTCRTSQGSPAFQPPEIANGLDTFSGFKVDIWSAGVTLYNITTGLYPFEGDNIYKLFENIGKGSYAIPGDCGPPLSDLLKGMLEYEPAKRFSIRQIRQHSWFRKKHPPAEAPVPIPPSPDTKDRWRSMTVVPYLEDLHGADEDEDLFDIEDDIIYTQDFTVPGQVPEEEASHNGQRRGLPKAVCMNGTEAAQLSTKSRAEGRAPNPARKACSASSKIRRLSACKQQ

The series covers variants of B1. Kind of series: STK11 functional score (HeLa growth suppression), rescaled enrichment; synonymous median = 1, nonsense median = 0 (normalised score). The note with it: with HeLa; variant type: missense. The method, boiled down: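 Functional scores are post/pre-selection log ratios corrected to wild type, rescaled to synonymous and nonsense medians, merged over codons and replicate transfections, and given bootstrapped error. They come from POPCode libraries of codon-optimised STK11 integrated by Bxb1 at an AAVS1 landing pad in HeLa, three regions each transfected three times, with BFP-negative, mCherry-positive integrants sorted by FACS and tiled gDNA amplicons sequenced on NextSeq.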
For the variant MEVVDPQQLGMFTEGELMSVGMDTFIHRIDSTEVIYQPRRKRAKLIGKYLMGDLLGEGSYGKVKEVLDSETLCRRAVKILKKKKLRRIPNGEANVKKEIQLLRRLRHKNVIQLVDVLYNEEKQKMYMVMEYCVCGMQEMLDSVPEKRFPVCQAHGYFCQLIDGLEYLHSQGIVHKDIKPGNLLLTTGGTLKISDLGVAEALHPFAADDTCRTSQGSPAFQPPEIANGLDTFSGFKVDIWSAGVTLYNITTGLYPFEGDNIYKLFENIGKGSYAIPGDCGPPLSDLLKGMLEYEPAKRFSIRQIRQHSWFRKKHPPAEAPVPIPPSPDTKDRWRSMTVVPYLEDLHGADEDEDLFDIEDCIIYTQDFTVPGQVPEEEASHNGQRRGLPKAVCMNGTEAAQLSTKSRAEGRAPNPARKACSASSKIRRLSACKQQ [D359C], the STK11 functional score turned out to be 1.14 ± 0.33.

On to MEVVDPQQLGMFTEGELMSVGMDTFIHRIDSTEVIYQPRRKRAKLIGKYLMGDLLGEGSYGKVKEVLDSETLCRRAVKILKKKKLRRIPNGEANVKKEIQLLRRLRHKNVIQLVDVLYNEEKQKMYMVMEYCVCGMQEMLDSVPEKRFPVCQAHGYFCQLIDGLEYLHSQGIVHKDIKPGNLLLTTGGTLKISDLGVAEALHPFAADDTCRTSQGSPAFQPPEIANGLDTFSGFKVDIWSAGVTLYNITTGLYPFEGDNIYKLFENIGKGSYAIPGDCGPPLSDLLKGMLEYEPAKRFSIRQIRQHSWFRKKHPPAEAPVPIPPSPDTKDRWRSMTVVPYLEDLHGADEDEDLFDIEDAIIYTQDFTVPGQVPEEEASHNGQRRGLPKAVCMNGTEAAQLSTKSRAEGRAPNPARKACSASSKIRRLSACKQQ [D359A], for which the STK11 functional score amounted to 1.4 ± 0.15.

Take MEVVDPQQLGMFTEGELMSVGMDTFIHRIDSTEVIYQPRRKRAKLIGKYLMGDLLGEGSYGKVKEVLDSETLCRRAVKILKKKKLRRIPNGEANVKKEIQLLRRLRHKNVIQLVDVLYNEEKQKMYMVMEYCVCGMQEMLDSVPEKRFPVCQAHGYFCQLIDGLEYLHSQGIVHKDIKPGNLLLTTGGTLKISDLGVAEALHPFAADDTCRTSQGSPAFQPPEIANGLDTFSGFKVDIWSAGVTLYNITTGLYPFEGDNIYKLFENIGKGSYAIPGDCGPPLSDLLKGMLEYEPAKRFSIRQIRQHSWFRKKHPPAEAPVPIPPSPDTKDRWRSMTVVPYLEDLHGADEDEDLFDIEWDIIYTQDFTVPGQVPEEEASHNGQRRGLPKAVCMNGTEAAQLSTKSRAEGRAPNPARKACSASSKIRRLSACKQQ [D358W]: the STK11 functional score was found to be 1.46 ± 0.16.

Regarding MEVVDPQQLGMFTEGELMSVGMDTFIHRIDSTEVIYQPRRKRAKLIGKYLMGDLLGEGSYGKVKEVLDSETLCRRAVKILKKKKLRRIPNGEANVKKEIQLLRRLRHKNVIQLVDVLYNEEKQKMYMVMEYCVCGMQEMLDSVPEKRFPVCQAHGYFCQLIDGLEYLHSQGIVHKDIKPGNLLLTTGGTLKISDLGVAEALHPFAADDTCRTSQGSPAFQPPEIANGLDTFSGFKVDIWSAGVTLYNITTGLYPFEGDNIYKLFENIGKGSYAIPGDCGPPLSDLLKGMLEYEPAKRFSIRQIRQHSWFRKKHPPAEAPVPIPPSPDTKDRWRSMTVVPYLEDLHGADEDEDLFDIEHDIIYTQDFTVPGQVPEEEASHNGQRRGLPKAVCMNGTEAAQLSTKSRAEGRAPNPARKACSASSKIRRLSACKQQ [D358H], the STK11 functional score amounted to 0.325 ± 0.53.

Consider MEVVDPQQLGMFTEGELMSVGMDTFIHRIDSTEVIYQPRRKRAKLIGKYLMGDLLGEGSYGKVKEVLDSETLCRRAVKILKKKKLRRIPNGEANVKKEIQLLRRLRHKNVIQLVDVLYNEEKQKMYMVMEYCVCGMQEMLDSVPEKRFPVCQAHGYFCQLIDGLEYLHSQGIVHKDIKPGNLLLTTGGTLKISDLGVAEALHPFAADDTCRTSQGSPAFQPPEIANGLDTFSGFKVDIWSAGVTLYNITTGLYPFEGDNIYKLFENIGKGSYAIPGDCGPPLSDLLKGMLEYEPAKRFSIRQIRQHSWFRKKHPPAEAPVPIPPSPDTKDRWRSMTVVPYLEDLHGADEDEDLFDIEEDIIYTQDFTVPGQVPEEEASHNGQRRGLPKAVCMNGTEAAQLSTKSRAEGRAPNPARKACSASSKIRRLSACKQQ [D358E], for which the STK11 functional score amounted to 0.693 ± 0.27.

Turning to MEVVDPQQLGMFTEGELMSVGMDTFIHRIDSTEVIYQPRRKRAKLIGKYLMGDLLGEGSYGKVKEVLDSETLCRRAVKILKKKKLRRIPNGEANVKKEIQLLRRLRHKNVIQLVDVLYNEEKQKMYMVMEYCVCGMQEMLDSVPEKRFPVCQAHGYFCQLIDGLEYLHSQGIVHKDIKPGNLLLTTGGTLKISDLGVAEALHPFAADDTCRTSQGSPAFQPPEIANGLDTFSGFKVDIWSAGVTLYNITTGLYPFEGDNIYKLFENIGKGSYAIPGDCGPPLSDLLKGMLEYEPAKRFSIRQIRQHSWFRKKHPPAEAPVPIPPSPDTKDRWRSMTVVPYLEDLHGADEDEDLFDIEVDIIYTQDFTVPGQVPEEEASHNGQRRGLPKAVCMNGTEAAQLSTKSRAEGRAPNPARKACSASSKIRRLSACKQQ [D358V], the STK11 functional score was 1.46 ± 0.2.

Regarding MEVVDPQQLGMFTEGELMSVGMDTFIHRIDSTEVIYQPRRKRAKLIGKYLMGDLLGEGSYGKVKEVLDSETLCRRAVKILKKKKLRRIPNGEANVKKEIQLLRRLRHKNVIQLVDVLYNEEKQKMYMVMEYCVCGMQEMLDSVPEKRFPVCQAHGYFCQLIDGLEYLHSQGIVHKDIKPGNLLLTTGGTLKISDLGVAEALHPFAADDTCRTSQGSPAFQPPEIANGLDTFSGFKVDIWSAGVTLYNITTGLYPFEGDNIYKLFENIGKGSYAIPGDCGPPLSDLLKGMLEYEPAKRFSIRQIRQHSWFRKKHPPAEAPVPIPPSPDTKDRWRSMTVVPYLEDLHGADEDEDLFDIERDIIYTQDFTVPGQVPEEEASHNGQRRGLPKAVCMNGTEAAQLSTKSRAEGRAPNPARKACSASSKIRRLSACKQQ [D358R], the STK11 functional score turned out to be 1.34 ± 0.27.

With MEVVDPQQLGMFTEGELMSVGMDTFIHRIDSTEVIYQPRRKRAKLIGKYLMGDLLGEGSYGKVKEVLDSETLCRRAVKILKKKKLRRIPNGEANVKKEIQLLRRLRHKNVIQLVDVLYNEEKQKMYMVMEYCVCGMQEMLDSVPEKRFPVCQAHGYFCQLIDGLEYLHSQGIVHKDIKPGNLLLTTGGTLKISDLGVAEALHPFAADDTCRTSQGSPAFQPPEIANGLDTFSGFKVDIWSAGVTLYNITTGLYPFEGDNIYKLFENIGKGSYAIPGDCGPPLSDLLKGMLEYEPAKRFSIRQIRQHSWFRKKHPPAEAPVPIPPSPDTKDRWRSMTVVPYLEDLHGADEDEDLFDIEIDIIYTQDFTVPGQVPEEEASHNGQRRGLPKAVCMNGTEAAQLSTKSRAEGRAPNPARKACSASSKIRRLSACKQQ [D358I], the STK11 functional score is 1.15 ± 0.46.

For the variant MEVVDPQQLGMFTEGELMSVGMDTFIHRIDSTEVIYQPRRKRAKLIGKYLMGDLLGEGSYGKVKEVLDSETLCRRAVKILKKKKLRRIPNGEANVKKEIQLLRRLRHKNVIQLVDVLYNEEKQKMYMVMEYCVCGMQEMLDSVPEKRFPVCQAHGYFCQLIDGLEYLHSQGIVHKDIKPGNLLLTTGGTLKISDLGVAEALHPFAADDTCRTSQGSPAFQPPEIANGLDTFSGFKVDIWSAGVTLYNITTGLYPFEGDNIYKLFENIGKGSYAIPGDCGPPLSDLLKGMLEYEPAKRFSIRQIRQHSWFRKKHPPAEAPVPIPPSPDTKDRWRSMTVVPYLEDLHGADEDEDLFDIEQDIIYTQDFTVPGQVPEEEASHNGQRRGLPKAVCMNGTEAAQLSTKSRAEGRAPNPARKACSASSKIRRLSACKQQ [D358Q], the STK11 functional score turned out to be 1.49 ± 0.3.

MEVVDPQQLGMFTEGELMSVGMDTFIHRIDSTEVIYQPRRKRAKLIGKYLMGDLLGEGSYGKVKEVLDSETLCRRAVKILKKKKLRRIPNGEANVKKEIQLLRRLRHKNVIQLVDVLYNEEKQKMYMVMEYCVCGMQEMLDSVPEKRFPVCQAHGYFCQLIDGLEYLHSQGIVHKDIKPGNLLLTTGGTLKISDLGVAEALHPFAADDTCRTSQGSPAFQPPEIANGLDTFSGFKVDIWSAGVTLYNITTGLYPFEGDNIYKLFENIGKGSYAIPGDCGPPLSDLLKGMLEYEPAKRFSIRQIRQHSWFRKKHPPAEAPVPIPPSPDTKDRWRSMTVVPYLEDLHGADEDEDLFDIENDIIYTQDFTVPGQVPEEEASHNGQRRGLPKAVCMNGTEAAQLSTKSRAEGRAPNPARKACSASSKIRRLSACKQQ [D358N]: the STK11 functional score stood at 0.776 ± 0.53.

In the case of MEVVDPQQLGMFTEGELMSVGMDTFIHRIDSTEVIYQPRRKRAKLIGKYLMGDLLGEGSYGKVKEVLDSETLCRRAVKILKKKKLRRIPNGEANVKKEIQLLRRLRHKNVIQLVDVLYNEEKQKMYMVMEYCVCGMQEMLDSVPEKRFPVCQAHGYFCQLIDGLEYLHSQGIVHKDIKPGNLLLTTGGTLKISDLGVAEALHPFAADDTCRTSQGSPAFQPPEIANGLDTFSGFKVDIWSAGVTLYNITTGLYPFEGDNIYKLFENIGKGSYAIPGDCGPPLSDLLKGMLEYEPAKRFSIRQIRQHSWFRKKHPPAEAPVPIPPSPDTKDRWRSMTVVPYLEDLHGADEDEDLFDIEPDIIYTQDFTVPGQVPEEEASHNGQRRGLPKAVCMNGTEAAQLSTKSRAEGRAPNPARKACSASSKIRRLSACKQQ [D358P], the STK11 functional score amounted to 0.725 ± 0.8.

Take MEVVDPQQLGMFTEGELMSVGMDTFIHRIDSTEVIYQPRRKRAKLIGKYLMGDLLGEGSYGKVKEVLDSETLCRRAVKILKKKKLRRIPNGEANVKKEIQLLRRLRHKNVIQLVDVLYNEEKQKMYMVMEYCVCGMQEMLDSVPEKRFPVCQAHGYFCQLIDGLEYLHSQGIVHKDIKPGNLLLTTGGTLKISDLGVAEALHPFAADDTCRTSQGSPAFQPPEIANGLDTFSGFKVDIWSAGVTLYNITTGLYPFEGDNIYKLFENIGKGSYAIPGDCGPPLSDLLKGMLEYEPAKRFSIRQIRQHSWFRKKHPPAEAPVPIPPSPDTKDRWRSMTVVPYLEDLHGADEDEDLFDIESDIIYTQDFTVPGQVPEEEASHNGQRRGLPKAVCMNGTEAAQLSTKSRAEGRAPNPARKACSASSKIRRLSACKQQ [D358S]: the STK11 functional score was found to be 1.47 ± 0.25.

As to MEVVDPQQLGMFTEGELMSVGMDTFIHRIDSTEVIYQPRRKRAKLIGKYLMGDLLGEGSYGKVKEVLDSETLCRRAVKILKKKKLRRIPNGEANVKKEIQLLRRLRHKNVIQLVDVLYNEEKQKMYMVMEYCVCGMQEMLDSVPEKRFPVCQAHGYFCQLIDGLEYLHSQGIVHKDIKPGNLLLTTGGTLKISDLGVAEALHPFAADDTCRTSQGSPAFQPPEIANGLDTFSGFKVDIWSAGVTLYNITTGLYPFEGDNIYKLFENIGKGSYAIPGDCGPPLSDLLKGMLEYEPAKRFSIRQIRQHSWFRKKHPPAEAPVPIPPSPDTKDRWRSMTVVPYLEDLHGADEDEDLFDIELDIIYTQDFTVPGQVPEEEASHNGQRRGLPKAVCMNGTEAAQLSTKSRAEGRAPNPARKACSASSKIRRLSACKQQ [D358L], the STK11 functional score was 1.56 ± 0.17.

For MEVVDPQQLGMFTEGELMSVGMDTFIHRIDSTEVIYQPRRKRAKLIGKYLMGDLLGEGSYGKVKEVLDSETLCRRAVKILKKKKLRRIPNGEANVKKEIQLLRRLRHKNVIQLVDVLYNEEKQKMYMVMEYCVCGMQEMLDSVPEKRFPVCQAHGYFCQLIDGLEYLHSQGIVHKDIKPGNLLLTTGGTLKISDLGVAEALHPFAADDTCRTSQGSPAFQPPEIANGLDTFSGFKVDIWSAGVTLYNITTGLYPFEGDNIYKLFENIGKGSYAIPGDCGPPLSDLLKGMLEYEPAKRFSIRQIRQHSWFRKKHPPAEAPVPIPPSPDTKDRWRSMTVVPYLEDLHGADEDEDLFDIEGDIIYTQDFTVPGQVPEEEASHNGQRRGLPKAVCMNGTEAAQLSTKSRAEGRAPNPARKACSASSKIRRLSACKQQ [D358G], the STK11 functional score is 1.08 ± 0.14.
